Data as given in the supplement of paper PMC6757056.
± gives the standard deviation of the averaged measurements.

B1: library; a variant is named by its letters at N, in order (parent)
chain: GCUGUCACCGGUGCUUGGUACGUUAUAUUCAGCCGGUCUGAUGAGUCUNNNNNNAGACGAAACAGC

Legend:
[1] = variants of: B1; assay: FACS-Seq fitted mean relative fluorescence mCherry/BFP without ligand (log10 relative fluorescence); HEK293T overexpressing SLC46A1; higher = higher reporter protein expression; details: without (6R,S)-folinic acid; ligand present: no
Summary of the method: (§1)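 Cells were sorted into 6 bins on the mCherry/BFP ratio after 48 h with or without ligand. These were enriched HEK293T cells transduced by lentivirus with a ribozyme-switch mCherry reporter plus an EF1α-BFP marker. Fluorescence was obtained by fitting a normal distribution to sequencing-derived bin counts. Counts came from MiSeq sequencing of PCR-amplified, barcoded genomic DNA, binned by log10(mCherry/BFP), with means scaled to five spiked-in control ribozymes.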

[2] = variants of: B1; assay: normalized RNA/DNA level without ligand (relative to sTRSVctl = 100) (log10 (% of sTRSVctl)); HEK293T overexpressing SLC46A1; higher = less ribozyme self-cleavage, higher mRNA level; details: without (6R,S)-folinic acid; ligand present: no
Summary of the method: (§2)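 Total RNA, extracted with EDTA 72 h after HEK293T cells were transfected with 4 µg per 6-well well of reporter-linked ribozyme switch library plasmids, was reverse-transcribed, amplified, barcoded and sequenced. Ligand, if used, was added 1 h before transfection. RNA level was derived from RNA reads divided by DNA reads and normalized to a spiked-in non-cleaving sequence or to the top sequences. This was multiplied by 100 and log10-transformed, with the top set of 25 sequences and a ≥100 DNA read minimum.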

[3] = variants of: B1; assay: FACS-Seq fitted mean relative fluorescence mCherry/BFP with ligand (log10 relative fluorescence); HEK293T overexpressing SLC46A1; ligand concentration (+) FACS-Seq: 6 mM; higher = higher reporter protein expression; details: with (6R,S)-folinic acid; ligand present: yes
Summary of the method: as §1

[4] = variants of: B1; assay: normalized RNA/DNA level with ligand (relative to sTRSVctl = 100) (log10 (% of sTRSVctl)); HEK293T overexpressing SLC46A1; ligand concentration (+) RNA-Seq: 6 mM; higher = less ribozyme self-cleavage, higher mRNA level; details: with (6R,S)-folinic acid; ligand present: yes
Summary of the method: as §2

Variant: CGCUUU
- FACS-Seq fitted mean (log10) [1]: -0.0215 ± 0.022
- normalized RNA/DNA level without ligand (log10) [2]: 2.017 ± 0.0068
- FACS-Seq fitted mean (log10) [3]: 0.0431 ± 0.039
- normalized RNA/DNA level with ligand (log10) [4]: 2 ± 0.063

Variant: AGGAAC
- FACS-Seq fitted mean (log10) [1]: 0.484 ± 0.041
- normalized RNA/DNA level without ligand (log10) [2]: 2 ± 0.012
- FACS-Seq fitted mean (log10) [3]: 0.434 ± 0.11
- normalized RNA/DNA level with ligand (log10) [4]: 2.018 ± 0.02

Variant: GGGAAG
- FACS-Seq fitted mean (log10) [1]: 0.485 ± 0.082
- normalized RNA/DNA level without ligand (log10) [2]: 1.955 ± 0.015
- FACS-Seq fitted mean (log10) [3]: 0.402 ± 0.061
- normalized RNA/DNA level with ligand (log10) [4]: 2.04 ± 0.027

Variant: UGGAAG
- FACS-Seq fitted mean (log10) [1]: 0.369 ± 0.058
- normalized RNA/DNA level without ligand (log10) [2]: 1.653 ± 0.0055
- FACS-Seq fitted mean (log10) [3]: 0.695 ± 0.017
- normalized RNA/DNA level with ligand (log10) [4]: 1.96 ± 0.039

Variant: CGGAAU
- FACS-Seq fitted mean (log10) [1]: 0.329 ± 0.016
- normalized RNA/DNA level without ligand (log10) [2]: 1.97 ± 0.022
- FACS-Seq fitted mean (log10) [3]: 0.208 ± 0.2
- normalized RNA/DNA level with ligand (log10) [4]: 2.02 ± 0.034

Variant: AGGAAU
- FACS-Seq fitted mean (log10) [1]: 0.338 ± 0.1
- normalized RNA/DNA level without ligand (log10) [2]: 1.988 ± 0.016
- FACS-Seq fitted mean (log10) [3]: 0.0683 ± 0.36
- normalized RNA/DNA level with ligand (log10) [4]: 2 ± 0.029

Variant: GGGACA
- FACS-Seq fitted mean (log10) [1]: 0.123 ± 0.064
- normalized RNA/DNA level without ligand (log10) [2]: 1.997 ± 0.016
- FACS-Seq fitted mean (log10) [3]: 0.248 ± 0.14
- normalized RNA/DNA level with ligand (log10) [4]: 2 ± 0.063

Variant: UGGACA
- FACS-Seq fitted mean (log10) [1]: 0.24 ± 0.025
- normalized RNA/DNA level without ligand (log10) [2]: 1.95 ± 0.0054
- FACS-Seq fitted mean (log10) [3]: 0.186 ± 0.017
- normalized RNA/DNA level with ligand (log10) [4]: 2.019 ± 0.019

Variant: UGGACC
- FACS-Seq fitted mean (log10) [1]: 0.168 ± 0.11
- normalized RNA/DNA level without ligand (log10) [2]: 2.01 ± 0.033
- FACS-Seq fitted mean (log10) [3]: 0.0739 ± 0.15
- normalized RNA/DNA level with ligand (log10) [4]: 1.97 ± 0.033

Variant: UGGACG
- FACS-Seq fitted mean (log10) [1]: 0.175 ± 0.0034
- normalized RNA/DNA level without ligand (log10) [2]: 1.778 ± 0.013
- FACS-Seq fitted mean (log10) [3]: 0.472 ± 0.059
- normalized RNA/DNA level with ligand (log10) [4]: 1.97 ± 0.029

Variant: GGGACU
- FACS-Seq fitted mean (log10) [1]: 0.111 ± 0.0086
- normalized RNA/DNA level without ligand (log10) [2]: 2.023 ± 0.011
- FACS-Seq fitted mean (log10) [3]: 0.0545 ± 0.19
- normalized RNA/DNA level with ligand (log10) [4]: 2.008 ± 0.019

Variant: UGGAGA
- FACS-Seq fitted mean (log10) [1]: 0.189 ± 0.11
- normalized RNA/DNA level without ligand (log10) [2]: 1.83 ± 0.026
- FACS-Seq fitted mean (log10) [3]: 0.388 ± 0.12
- normalized RNA/DNA level with ligand (log10) [4]: 2.01 ± 0.044

Variant: AGGAGA
- FACS-Seq fitted mean (log10) [1]: 0.26 ± 0.062
- normalized RNA/DNA level without ligand (log10) [2]: 1.931 ± 0.007
- FACS-Seq fitted mean (log10) [3]: 0.172 ± 0.078
- normalized RNA/DNA level with ligand (log10) [4]: 2.018 ± 0.017

Variant: GGGAGC
- FACS-Seq fitted mean (log10) [1]: 0.342 ± 0.098
- normalized RNA/DNA level without ligand (log10) [2]: 1.831 ± 0.0028
- FACS-Seq fitted mean (log10) [3]: 0.435 ± 0.029
- normalized RNA/DNA level with ligand (log10) [4]: 1.96 ± 0.029

Variant: GGGAGG
- FACS-Seq fitted mean (log10) [1]: 0.108 ± 0.032
- normalized RNA/DNA level without ligand (log10) [2]: 2.014 ± 0.004
- FACS-Seq fitted mean (log10) [3]: 0.269 ± 0.081
- normalized RNA/DNA level with ligand (log10) [4]: 2.04 ± 0.032

Variant: UGGAGG
- FACS-Seq fitted mean (log10) [1]: 0.042 ± 0.039
- normalized RNA/DNA level without ligand (log10) [2]: 1.641 ± 0.0022
- FACS-Seq fitted mean (log10) [3]: 0.458 ± 0.14
- normalized RNA/DNA level with ligand (log10) [4]: 1.96 ± 0.031

Variant: AGGAGG
- FACS-Seq fitted mean (log10) [1]: 0.585 ± 0.15
- normalized RNA/DNA level without ligand (log10) [2]: 1.922 ± 0.0095
- FACS-Seq fitted mean (log10) [3]: 0.614 ± 0.2
- normalized RNA/DNA level with ligand (log10) [4]: 2.05 ± 0.03

Variant: GGGAGU
- FACS-Seq fitted mean (log10) [1]: 0.46 ± 0.087
- normalized RNA/DNA level without ligand (log10) [2]: 1.975 ± 0.0027
- FACS-Seq fitted mean (log10) [3]: 0.487 ± 0.054
- normalized RNA/DNA level with ligand (log10) [4]: 2 ± 0.038

Variant: UGGAGU
- FACS-Seq fitted mean (log10) [1]: 0.504 ± 0.12
- normalized RNA/DNA level without ligand (log10) [2]: 1.894 ± 0.0062
- FACS-Seq fitted mean (log10) [3]: 0.658 ± 0.037
- normalized RNA/DNA level with ligand (log10) [4]: 1.99 ± 0.035

Variant: CGGAUA
- FACS-Seq fitted mean (log10) [1]: 0.0197 ± 0.04
- normalized RNA/DNA level without ligand (log10) [2]: 1.9689 ± 0.0014
- FACS-Seq fitted mean (log10) [3]: -0.118 ± 0.034
- normalized RNA/DNA level with ligand (log10) [4]: 1.98 ± 0.061

Variant: AGGAUA
- FACS-Seq fitted mean (log10) [1]: 0.115 ± 0.081
- normalized RNA/DNA level without ligand (log10) [2]: 1.945 ± 0.0066
- FACS-Seq fitted mean (log10) [3]: 0.116 ± 0.17
- normalized RNA/DNA level with ligand (log10) [4]: 2 ± 0.049

Variant: CGGAUG
- FACS-Seq fitted mean (log10) [1]: 0.00208 ± 0.054
- normalized RNA/DNA level without ligand (log10) [2]: 2 ± 0.024
- FACS-Seq fitted mean (log10) [3]: -0.0609 ± 0.15
- normalized RNA/DNA level with ligand (log10) [4]: 2.02 ± 0.043

Variant: GGGAUG
- FACS-Seq fitted mean (log10) [1]: 0.385 ± 0.017
- normalized RNA/DNA level without ligand (log10) [2]: 1.974 ± 0.017
- FACS-Seq fitted mean (log10) [3]: 0.354 ± 0.025
- normalized RNA/DNA level with ligand (log10) [4]: 2.04 ± 0.028

Variant: UGGAUG
- FACS-Seq fitted mean (log10) [1]: 0.178 ± 0.037
- normalized RNA/DNA level without ligand (log10) [2]: 1.68 ± 0.017
- FACS-Seq fitted mean (log10) [3]: 0.784 ± 0.046
- normalized RNA/DNA level with ligand (log10) [4]: 1.958 ± 0.015

Variant: UGGAUU
- FACS-Seq fitted mean (log10) [1]: 0.509 ± 0.13
- normalized RNA/DNA level without ligand (log10) [2]: 1.9762 ± 0.00085
- FACS-Seq fitted mean (log10) [3]: 0.582 ± 0.21
- normalized RNA/DNA level with ligand (log10) [4]: 2.03 ± 0.023

Variant: AGGCAA
- FACS-Seq fitted mean (log10) [1]: 0.293 ± 0.14
- normalized RNA/DNA level without ligand (log10) [2]: 1.994 ± 0.016
- FACS-Seq fitted mean (log10) [3]: 0.205 ± 0.1
- normalized RNA/DNA level with ligand (log10) [4]: 1.994 ± 0.019

Variant: AGGCAC
- FACS-Seq fitted mean (log10) [1]: 0.308 ± 0.083
- normalized RNA/DNA level without ligand (log10) [2]: 2.0376 ± 0.0006
- FACS-Seq fitted mean (log10) [3]: 0.298 ± 0.11
- normalized RNA/DNA level with ligand (log10) [4]: 2.02 ± 0.018

Variant: UGGCAG
- FACS-Seq fitted mean (log10) [1]: 0.237 ± 0.02
- normalized RNA/DNA level without ligand (log10) [2]: 1.76 ± 0.059
- FACS-Seq fitted mean (log10) [3]: 0.61 ± 0.17
- normalized RNA/DNA level with ligand (log10) [4]: 1.955 ± 0.013

Variant: CGGCAU
- FACS-Seq fitted mean (log10) [1]: 0.32 ± 0.03
- normalized RNA/DNA level without ligand (log10) [2]: 2.011 ± 0.0083
- FACS-Seq fitted mean (log10) [3]: 0.52 ± 0.17
- normalized RNA/DNA level with ligand (log10) [4]: 2.019 ± 0.02

Variant: GGGCAU
- FACS-Seq fitted mean (log10) [1]: 0.273 ± 0.12
- normalized RNA/DNA level without ligand (log10) [2]: 2.045 ± 0.01
- FACS-Seq fitted mean (log10) [3]: 0.0697 ± 0.059
- normalized RNA/DNA level with ligand (log10) [4]: 2.054 ± 0.0062

Variant: AGGCAU
- FACS-Seq fitted mean (log10) [1]: 0.532 ± 0.008
- normalized RNA/DNA level without ligand (log10) [2]: 1.982 ± 0.0087
- FACS-Seq fitted mean (log10) [3]: 0.603 ± 0.48
- normalized RNA/DNA level with ligand (log10) [4]: 2.02 ± 0.026

Variant: UGGCCA
- FACS-Seq fitted mean (log10) [1]: 0.74 ± 0.1
- normalized RNA/DNA level without ligand (log10) [2]: 2.04 ± 0.014
- FACS-Seq fitted mean (log10) [3]: 0.432 ± 0.081
- normalized RNA/DNA level with ligand (log10) [4]: 2.057 ± 0.014

Variant: GGGCGG
- FACS-Seq fitted mean (log10) [1]: 0.0567 ± 0.099
- normalized RNA/DNA level without ligand (log10) [2]: 2.07 ± 0.027
- FACS-Seq fitted mean (log10) [3]: 0.485 ± 0.0056
- normalized RNA/DNA level with ligand (log10) [4]: 2.06 ± 0.045

Variant: AGGCUA
- FACS-Seq fitted mean (log10) [1]: 0.50616 ± 0.00017
- normalized RNA/DNA level without ligand (log10) [2]: 2.041 ± 0.0053
- FACS-Seq fitted mean (log10) [3]: 0.407 ± 0.33
- normalized RNA/DNA level with ligand (log10) [4]: 2.06 ± 0.037

Variant: CGGCUC
- FACS-Seq fitted mean (log10) [1]: 0.213 ± 0.046
- normalized RNA/DNA level without ligand (log10) [2]: 2.048 ± 0.0069
- FACS-Seq fitted mean (log10) [3]: 0.269 ± 0.16
- normalized RNA/DNA level with ligand (log10) [4]: 2.037 ± 0.014
